Values quoted from earlier work as cited in publication PMC2586657.

Target: alpha-factor (Saccharomyces cerevisiae) (UniProt P01149)

Kd: 5 nM
Substance: alpha-factor receptor (from UniProt D6VTK4)
